B1: SYM6/Δ104-106: SYM6 FGF-1 mutant plus Ala103→Gly/ΔGlu104/ΔLys105/ΔAsn106 (protein, UniProt P05230 16-155, looked up, variant A103G E104* K105* N106*)
Fibroblast growth factor 1: FNLPPGNYKKPKLLYCSNGGHFLRILPDGTVDGTRDRSDQHIQLQLSAESVGEVYIKSTETGQYLAMDTDGLLYGSQTPNEECLFLERLEENHYNTYISKKHGWFVGLKKNGSCKRGPRTHYGQKAILFLPLPVSSD
modifications: SYM6 background mutations
notes: SYM6 FGF-1 mutant plus Ala103→Gly/ΔGlu104/ΔLys105/ΔAsn106
B2: SYM5/ΔΔ: SYM5 FGF-1 mutant plus both Δ104-106 and Δ120-122 deletion mutations (protein, UniProt P05230 16-155, looked up, variant L44F L73V V109L L111I C117V A103G del104-106 R119G del120-122)
Fibroblast growth factor 1: FNLPPGNYKKPKLLYCSNGGHFLRILPDGTVDGTRDRSDQHIQFQLSAESVGEVYIKSTETGQYLAMDTDGLVYGSQTPNEECLFLERLEENHYNTYISKKHGWFLGIKKNGSVKGTHYGQKAILFLPLPVSSD
B3: SYM6/Δ120-122: SYM6 FGF-1 mutant plus Arg119→Gly/ΔGly120/ΔPro121/ΔArg122 (protein, UniProt P05230 16-155, looked up, variant L44F M67I L73V V109L L111I C117V R119G del120-122)
Fibroblast growth factor 1: FNLPPGNYKKPKLLYCSNGGHFLRILPDGTVDGTRDRSDQHIQFQLSAESVGEVYIKSTETGQYLAIDTDGLVYGSQTPNEECLFLERLEENHYNTYISKKHAEKNWFLGIKKNGSVKGTHYGQKAILFLPLPVSSD

Key:
[1] = Isothermal equilibrium denaturation in guanidine HCl monitored by CD; format: physicochemical; settings: for Cm / m-value / ΔG0: GuHCl, 298K, CD signal at 227 nm; for ΔΔG: relative to WT*, negative value = more stable
Method: Protein samples were equilibrated overnight in 20 mM N-2-(acetamido)iminodiacetic acid (ADA), 100 mM NaCl pH 6.60 at 298K in 0.1M increments of guanidine HCl (GuHCl). All samples contained a final protein concentration of 25 μM. An Aviv model 202 circular dichroism spectrometer (Proterion Corp., Piscataway, N.J.) equipped with a Peltier controlled temperature unit maintaining a constant temperature of 298K was used for all spectroscopic measurements. For each sample, triplicate scans were collected and averaged. Buffer traces were collected, averaged and subtracted from the sample traces. Data smoothing was performed prior to buffer subtraction using a 5-point Fourier transform filter. The denaturation process was monitored by observing the change in CD signal at 227 nm with increasing GuHCl, according to published references. The general purpose non-linear least squares fitting program DataFit™ (Oakdale Engineering, Oakdale Pa.) was used to fit the change in molar ellipticity at 227 nm versus GuHCl concentration to a six parameter two state model: F=(F0N+SN[D]+F0D+SD[D])e^−((ΔG0+m[D]/RT)/1+e^−((ΔG0+m[D]/RT) (1) where [D] is the denaturant concentration, F0N and F0D are the 0M denaturant molar ellipticity intercepts for the native and denatured states, respectively, and SN and SD are the slopes of the native and denatured state baselines, respectively. ΔG0 and m describe the linear function of the unfolding free energy versus denaturant concentration at 298K. The effect of a given mutation upon the stability of the protein (ΔΔG) was calculated by taking the difference between the Cm values for WT* and mutant and multiplying by the average of the m values, as described by Pace and Scholtz (Measuring the conformational stability of a protein; in Protein Structure: A Practical Approach, Creighton, T. E., ed., pp. 299-321, Oxford University Press, Oxford; 1997): ΔΔG=(CmWT*−Cm mutant)(mWT*+mmutant)/2 (2) Folding Kinetics Measurements.
Previous studies by others of the stability and folding of FGF-1 have been performed by monitoring the fluorescence signal of the single buried Trp 107 in FGF-1. This Trp in the WT* structure is somewhat unusual in that it is more highly quenched in the native state than the denatured. […] We have previously compared the fluorescence and CD spectroscopic response of FGF-1 to denaturation by GuHCl and shown essentially indistinguishable results for both his-tagged and non-his-tagged forms. A tabulation of the mutant thermodynamic data from isothermal equilibrium denaturation, monitored by CD signal, is listed in Table II. The data in this table for the SYM6 mutant are from our previously published isothermal equilibrium denaturation study monitored by fluorescence.

[2] = Folding and unfolding kinetics (Chevron plot, stopped-flow CD, GuHCl); format: physicochemical; settings: for kf: folding rate constant extrapolated to 0M GuHCl; for kf / ku: global Chevron fit; for ΔΔG‡-D / ΔΔG‡-N: in reference to WT*; for ΔΔG‡-D: positive value = decrease in folding activation barrier; for ΔΔG‡-N: positive value = decrease in unfolding activation barrier; for mf: slope of ln(kf) vs GuHCl; for mu: slope of ln(ku) vs GuHCl; for ku: unfolding rate constant extrapolated to 0M GuHCl
Method: Due to signal-to-noise considerations, relatively high protein concentrations (>100 μM) of FGF-1 were required for kinetic studies monitored by CD. At these concentrations protein precipitation occurred in ADA buffer. Therefore, a different buffering system was chosen for the kinetic studies to permit higher protein concentrations without precipitation. Protein samples were dialyzed against 50 mM sodium phosphate, 100 mM NaCl, 10 mM ammonium sulfate, 2 mM DTT, and typically 2.5, 3.0 or 3.8M GuHCl pH 7.5 overnight at 298K prior to data collection (higher concentrations of GuHCl were required to ensure complete denaturation for some stabilizing mutations).
Protein samples were degassed for 10 minutes prior to analysis. Refolding was initiated by a 1:10 dilution of protein solutions into 50 mM sodium phosphate, 100 mM NaCl, 10 mM ammonium sulfate, 2 mM DTT pH 7.5 containing either 0.1M or 0.05M increments of GuHCl up to the midpoint of denaturation. All data were collected using an Aviv model SF305 stopped flow system. Data collection times for each protein were designed to quantify the CD signal over 5 half-lives, or >96% of the total expected amplitude.
Protein samples (300 μM) were dialyzed against 50 mM sodium phosphate, 100 mM NaCl, 10 mM ammonium sulfate, 2 mM DTT pH 7.50 buffer overnight at 298K, and degassed for 10 min prior to data collection. Unfolding was initiated by 1:10 dilution of the native protein into 50 mM sodium phosphate, 100 mM NaCl, 10 mM ammonium sulfate, 2 mM DTT pH 7.5 buffer with final GuHCl concentration in the range of 1.5 to 5.5M in 0.5M increments. The unfolding process was quantified by following the change in CD signal at 227 nm, and data collection times for each protein were designed so as to monitor the CD signal over 3 to 4 half-lives, or >93% of the total expected amplitude.
Triplicate scans were collected for both folding and unfolding kinetic data at each GuHCl buffer condition. In all cases, data from at least three separate experiments were averaged. The kinetic rates and amplitudes versus denaturant concentration were calculated from the time dependent change in CD signal using a single exponential model: I(t)=Aexp(−kt)+C (3) where I(t) is the intensity of CD signal at time t, A is the corresponding amplitude, k is the observed rate constant for the reaction and C is a constant that is the asymptote of the CD signal. Folding and unfolding rate constant data were fit to a global function describing the contribution of both rate constants to the observed kinetics as a function of denaturant (“Chevron” plot): In(kobs)=In(kf0exp(mkfD)+ku0exp(mkuD)) (5) where kf0 and ku0 are the folding and unfolding rate constants, respectively, extrapolated to 0M denaturant, mkf and mku are the slopes of the linear functions relating In(kf) and In(ku), respectively, to D, the denaturant concentration. Changes in activation barriers upon mutation were calculated using a modified version of transition state theory: ΔΔG‡-D=RTIn(kf Mut/kfWT*) and ΔΔG‡-N=RTIn(ku Mut/kuWT*) (6) where kf Mut, ku Mut, kf WT* and ku WT* are the folding and unfolding rates for mutant and WT*, respectively, in water. ΔΔG‡-D, and ΔΔG‡-N are the changes in the activation barrier for folding and unfolding, respectively, between mutation and WT*. A positive value for ΔΔG‡-D or ‡‡G‡-N indicates a decrease in the associated activation barrier energy. Isothermal Titration Calorimetry.
Due to the relatively weak differential CD signal of native and denatured FGF-1, the folding kinetics study required relatively high protein concentrations (>5 mg/ml). […] Thus, the refolding rate constants were not obtainable below certain denaturant concentrations for these mutants. […] The SYM6Δ120-122 mutant is substantially destabilized relative to the WT* protein (see Table II) and presents a relatively short “folding arm” in the Chevron plot, for this reason there is greater uncertainty associated with the folding kinetics determined for this mutant. […]

Molecule	Cm [1]	m-value [1]	ΔG0 [1]	ΔΔG [1]	kf [2]	ΔΔG‡-D [2]	ΔΔG‡-N [2]	mf [2]	mu [2]	ku [2]	stability of the actual combination mutant ([1]; relative to the SYM5 protein)	folding behavior ([2]; all denaturant concentrations evaluated)
B1	1.21 ± 0.01 M	16.9 ± 0.5 kJ/mol M	4.9 ± 0.12 kcal/mol	-0.669 kcal/mol	30.1 s⁻¹	1.31 kcal/mol	0.935 kcal/mol	-5.41 M⁻¹	0.94 M⁻¹	3.33 1 × 10^−3 sec^−1	–	–
B2	1.89 ± 0.01 M	18.1 ± 0.7 kJ/mol M	8.17 ± 0.287 kcal/mol	-3.8 kcal/mol	40.4 s⁻¹	1.48 kcal/mol	0.146 kcal/mol	-4.57 M⁻¹	0.66 M⁻¹	0.88 1 × 10^−3 sec^−1	-3.61 kcal/mol	single exponential folding behavior
B3	0.79 ± 0.01 M	20.0 ± 0.2 kJ/mol M	3.75 ± 0.048 kcal/mol	1.29 kcal/mol	17.3 s⁻¹	0.98 kcal/mol	1.45 kcal/mol	-9.45 M⁻¹	0.86 M⁻¹	7.95 1 × 10^−3 sec^−1	–	–

— patent US7790682B1, “Engineered human acidic fibroblast growth factors and associated methods” (The Florida State University Research Foundation, Inc., priority 2003, dated 2010)
